{"source": "patent US20240368285A1", "about": "(HEFEI TG IMMUNOPHARMA, published 2024)", "binders": {"B1": {"name": "affinity maturation antibody h5A1002 (antibody, V domains shown)", "VH": "QVQLQESGPGLVKPSETLSLTCTVSGFSLTTYGGHWIRQPPGKGLEWIGMIWTDGWTDYNAAFISRVTISVDTSKNQFSLKLSSVTAADTAVYYCARKGHGYYYAMDYWGQGTLVTVSS", "VL": "EIVLTQSPGTLSLSPGERATLSCTASSSVSSSYLHWYQQKPGQAPRLLIYSTSNLISGIPDRFSGSGSGTDFTLTISRLEPEDFAVYYCHQYHRSPFTFGQGTKLEIKR", "notes": "Human IgG1, kappa; also called h5A1002-hIgG1"}}, "key": {"MICA002α3-Fc [1]": {"biological_target": "T1, MICA002α3-Fc (human)", "T1 construct": "Produced in the Applicant's laboratory; also called MICA*002-Fc; domain α3 of MICA-002 Fc fusion protein", "T1 sequence (chain, as listed by the source limits assumed)": "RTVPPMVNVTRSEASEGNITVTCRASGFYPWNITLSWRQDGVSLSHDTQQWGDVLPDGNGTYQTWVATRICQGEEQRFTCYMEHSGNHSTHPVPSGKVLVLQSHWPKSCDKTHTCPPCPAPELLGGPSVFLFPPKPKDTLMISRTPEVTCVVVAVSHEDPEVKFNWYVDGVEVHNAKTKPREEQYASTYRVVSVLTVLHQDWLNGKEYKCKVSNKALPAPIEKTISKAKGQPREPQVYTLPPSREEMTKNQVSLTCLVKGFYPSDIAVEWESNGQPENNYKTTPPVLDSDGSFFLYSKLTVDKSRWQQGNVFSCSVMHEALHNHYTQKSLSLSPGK", "assay": "ELISA on coated MICA*002 α3-Fc (1 µg/ml), HRP anti-human Fab secondary, OD450", "description": "(§1) After the antibodies were added, signal intensity was used for judging the binding characteristics of the antibodies and MICA and MICB.\n(§2) The fusion proteins (produced in the Applicant's laboratory; an amino acid sequence of MICA002α3-Fc is as set forth in SEQ ID NO: 22; an amino acid sequence of MICA005α3-Fc is as set forth in SEQ ID NO: 24; an amino acid sequence of MICA008α3-Fc is as set forth in SEQ ID NO: 25; an amino acid sequence of MICA004α3-Fc is as set forth in SEQ ID NO: 23; an amino acid sequence of MICB001α3-Fc is as set forth in SEQ ID NO: 26; and an amino acid sequence of MICB005α3-Fc is as set forth in SEQ ID NO: 27) were diluted to a concentration of 1 μg/ml with PBS and then added into a 96-well plate in a volume of 100 μl/well. The plate was placed at 4° C. overnight. The PBS in the 96-well plate was removed by sucking. After the plate was washed with PBST (that is, PBS having a pH value of 7.2 included 0.1 volume % of Tween 20) for 6 times, PBS containing 10% of BSA was added in a volume of 200 μl/well. The plate was incubated at 37° C. for 2 hours for blocking. The blocking solution was removed. […]"}, "MICA005α3-Fc [2]": {"biological_target": "T2, MICA005α3-Fc (human)", "T2 construct": "also called MICA*005-Fc; domain α3 of MICA-005 Fc fusion protein", "T2 sequence (chain, as listed by the source limits assumed)": "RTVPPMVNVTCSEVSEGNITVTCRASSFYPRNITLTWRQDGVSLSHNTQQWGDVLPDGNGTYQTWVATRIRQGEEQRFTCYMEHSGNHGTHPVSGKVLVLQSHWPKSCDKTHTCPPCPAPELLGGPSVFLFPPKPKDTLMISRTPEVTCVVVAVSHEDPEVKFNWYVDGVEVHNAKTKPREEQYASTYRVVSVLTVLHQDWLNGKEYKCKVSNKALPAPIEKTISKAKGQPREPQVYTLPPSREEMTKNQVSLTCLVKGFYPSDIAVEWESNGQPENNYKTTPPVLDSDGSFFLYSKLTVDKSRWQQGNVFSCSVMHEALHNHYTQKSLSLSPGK", "assay": "ELISA on coated MICA*005 α3-Fc (1 µg/ml), HRP anti-human Fab secondary, OD450", "description": "as §1, §2"}, "MICB005α3-Fc": {"biological_target": "T3, MICB005α3-Fc", "T3 construct": "also called MICB*005-Fc; domain α3 of MICB-005 Fc fusion protein", "T3 sequence (chain, as listed by the source limits assumed)": "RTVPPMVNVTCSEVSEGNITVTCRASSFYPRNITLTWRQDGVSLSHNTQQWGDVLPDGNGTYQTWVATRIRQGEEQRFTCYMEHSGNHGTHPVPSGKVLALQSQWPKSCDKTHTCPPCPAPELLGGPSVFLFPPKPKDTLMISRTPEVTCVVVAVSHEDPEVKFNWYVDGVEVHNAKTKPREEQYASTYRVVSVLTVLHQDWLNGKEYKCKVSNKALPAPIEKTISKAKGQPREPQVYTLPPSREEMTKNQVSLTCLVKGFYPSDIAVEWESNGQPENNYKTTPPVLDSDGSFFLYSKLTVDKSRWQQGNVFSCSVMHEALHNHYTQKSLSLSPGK", "assay": "ELISA on coated MICB*005 α3-Fc (1 µg/ml), HRP anti-human Fab secondary, OD450", "description": "as §1, §2"}, "MICA002α3-Fc [3]": {"biological_target": "T1, MICA002α3-Fc", "assay": "ELISA on coated MICA*002 α3-Fc (1 µg/ml), HRP anti-human Fab secondary, OD450", "remark": "listed apart in the source"}, "MICA005α3-Fc [4]": {"biological_target": "T2, MICA005α3-Fc", "assay": "ELISA on coated MICA*005 α3-Fc (1 µg/ml), HRP anti-human Fab secondary, OD450", "remark": "listed apart in the source"}, "MICB001α3-Fc": {"biological_target": "T4, MICB001α3-Fc", "T4 construct": "also called MICB*001-Fc; domain α3 of MICB-001 Fc fusion protein", "T4 sequence (chain, as listed by the source limits assumed)": "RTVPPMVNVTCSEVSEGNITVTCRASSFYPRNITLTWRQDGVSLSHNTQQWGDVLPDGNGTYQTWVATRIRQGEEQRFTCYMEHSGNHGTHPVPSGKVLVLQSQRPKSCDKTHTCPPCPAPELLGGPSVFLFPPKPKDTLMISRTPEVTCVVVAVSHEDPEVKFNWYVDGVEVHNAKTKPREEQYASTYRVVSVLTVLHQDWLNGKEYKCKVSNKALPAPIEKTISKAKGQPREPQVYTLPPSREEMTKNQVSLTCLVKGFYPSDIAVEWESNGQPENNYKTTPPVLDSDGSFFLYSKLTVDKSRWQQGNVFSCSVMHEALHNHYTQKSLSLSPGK", "assay": "ELISA on coated MICB*001 α3-Fc (1 µg/ml), HRP anti-human Fab secondary, OD450"}, "[5]": {"biological_target": "T5, MICA on human tumor cells (A-375, A549, HCT-15, MDA-MB-231) (human, UniProt Q29983 24-383)", "T5 construct": "whole, on cells", "T5 sequence (looked up)": "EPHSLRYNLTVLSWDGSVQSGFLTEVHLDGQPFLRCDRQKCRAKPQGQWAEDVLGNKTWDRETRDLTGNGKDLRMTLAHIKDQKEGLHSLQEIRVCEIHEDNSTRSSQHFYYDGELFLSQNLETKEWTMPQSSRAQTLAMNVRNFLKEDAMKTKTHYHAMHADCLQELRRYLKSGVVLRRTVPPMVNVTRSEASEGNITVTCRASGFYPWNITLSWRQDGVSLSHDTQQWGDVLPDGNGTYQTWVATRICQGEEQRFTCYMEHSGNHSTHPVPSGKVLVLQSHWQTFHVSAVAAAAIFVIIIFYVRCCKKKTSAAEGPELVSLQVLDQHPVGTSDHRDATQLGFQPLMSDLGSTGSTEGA", "assay": "flow cytometry competition on HCT-15 cells; competitor: Biotin-h5A1002, detected with Alexa-647 streptavidin; % binding ratio of Biotin-h5A1002", "description": "HCT-15 cells were diluted to a density of 2×10⁶/mL with PBS and added into a 1.5 ml EP tube in a volume of 100 l/tube. 10 l/tube of goat serum was added into the EP tube, and blocking was conducted at 4° C. for 30 min. […] The tube was incubated at 4° C. for 30 min. A biotin-labeled affinity maturation antibody Biotin-h5A1002 (having a heavy chain sequence as set forth in SEQ ID NO: 13 and a light chain sequence as set forth in SEQ ID NO: 14) was added. The tube was incubated at 4° C. for 30 min. 1 mL of PBS was added into the EP tube, and centrifugation was conducted 4° C. at a rate of 3,500 rpm for 5 min. The supernatant was removed. The EP tube was washed once with the PBS, and the supernatant was removed after centrifugation. The cells were resuspended with PBS in a volume of 100 l/tube. An Alexa-647 labeled Streptavidin secondary antibody (purchased from Biolegend) was added into the tube in a volume of 1 l/tube, and the tube was incubated in the dark at 4° C. for 30 min. The tube was washed twice with PBS, and the supernatant was removed after centrifugation. The cells were resuspended with the PBS in a volume of 200 μl/tube, and detection was conducted by a flow cytometer."}}, "note": "Like-named read-outs stand apart in the source and are kept apart here."}
{"binder": "B1", "values": [{"measurement": "EC50 (read off the curve)", "setting": "MICA002α3-Fc [1]", "value": "~60", "unit": "ng/mL"}, {"measurement": "EC50 (read off the curve)", "setting": "MICA005α3-Fc [2]", "value": "~70", "unit": "ng/mL"}, {"measurement": "EC50 (read off the curve)", "setting": "MICB005α3-Fc", "value": "~50", "unit": "ng/mL"}, {"measurement": "EC50 (read off the curve)", "setting": "MICA002α3-Fc [3]", "value": "~0.04", "unit": "µg/mL"}, {"measurement": "EC50 (read off the curve)", "setting": "MICA005α3-Fc [4]", "value": "~0.04", "unit": "µg/mL"}, {"measurement": "EC50 (read off the curve)", "setting": "MICB001α3-Fc", "value": "~0.03", "unit": "µg/mL"}, {"measurement": "IC50 (read off the curve)", "setting": "[5]", "value": "~1", "unit": "µg/mL"}]}
